Source: patent US20070128192A1
Residue numbers refer to the chain shown, from its start. Blank lines part the entries; values can stand above or below the binder they belong to.

Assays:
[1] = molecular target: human IL-13 (human) (UniProt P35225); experiment: cell-based or functional assay
[2] = molecular target: human IL-13 variant (Q130R), baculovirus expressed, carboxyl terminus affinity tag (human) (UniProt P35225)

B3: BAK1166G2 scFv (scFv, part only; not given: Linker, part only)
scFv, part: QVQLVQSGAEVKKPGASVKVSCKASGYTFANTGISWVRQAPGQGLEWMGWISANNGDTNYGQEFQGRVTMTTDTSTSTAYMELRSLRSDDTAVYYCARDSSSSWARWFFDLWGRGTLVTVSSSYVLTQPPSVSVAPGKTARITCGGNIIGSKLVHWYQQKPGQAPVLVIYDDGDRPSGIPERFSGSNSGNTATLTISRVEAGDEADYYCQVWDTGSDPVVFGGGTKLTVL
IC50, TF-1 cell proliferation assay [1]: 0.2 nM

B4: BAK1167F2 scFv (scFv, part only; not given: Linker, part only)
scFv, part: B3 scFv, part with A30E, N31Q, I34V
IC50, TF-1 cell proliferation assay [1]: 0.2 nM

B5: BAK1105H3 scFv (scFv, V domains shown, part only)
VH: QVQLVQSGAEVKKPGASVKVSCKASGYTFTNYGLSWVRQAPGQGLEWMGWISGLNGETLYGQEFQGRVTMTTDTSTSTAYMELRSLRSDDTAVYYCARDSSSSWARWFFDLWGRGTLVTVSS
VL: SYVLTQPPSVSVAPGKTARITCGGNIIGSKLVHWYQQKPGQAPVLVIYDDGDRPSGIPERFSGSNSGNTATLTISRVEAGDEADYYCQVWDTGSDPVVFGGGTKLTVL
modifications: scFv linker not given
IC50, TF-1 cell proliferation assay [1]: 0.2 nM

B6: BAK278D6 scFv (scFv, V domains shown)
VH: EVQLVQSGAEVKKPGASVKVSCKASGYTFRNYGLSWVRQAPGQGLEWMGWISANNGDTNYGQEFQGRITMTTETSTNTAHMELRSLRSDDTAVYYCVRDSSSNWARWFFDLWGKGTMVTVSS
VL: B5 VL with K16Q, T21P, I26N, I47V, V77I, E78D
IC50 (read off the curve); TF-1 cell proliferation, 25 ng/ml human IL-13 variant (Q130R) [2]: 80 nM

B7: BAK1111D10 scFv (scFv, V domains shown, part only)
VH: B5 VH with S52A, G53T, L54P, N55D, E57Q, L59S, S101N
VL: B5 VL
modifications: scFv linker not given
IC50, TF-1 cell proliferation assay [1]: 0.2 nM

B9: BAK1167F4 scFv (scFv, V domains shown, part only)
VH: B5 VH with T30I, N31D, Y32T, L34V, G53A, L54N, E57D, L59N
VL: B5 VL
modifications: scFv linker not given
IC50, TF-1 cell proliferation assay [1]: 0.2 nM

Now from value to binder:

IC50, TF-1 cell proliferation assay [1]: 0.1 nM
B1: BAK1187B4 scFv (scFv, part only; not given: Linker, part only)
scFv, part: B3 scFv, part with A30T, T32Y, I34L, S52D, A53D, N54D, N55S, D57T, N59I

IC50, TF-1 cell proliferation assay [1]: 0.2 nM
B2: BAK1185E1 scFv (scFv, part only; not given: Linker, part only)
scFv, part: B3 scFv, part with A30T, T32Y, I34L, S52N, A53D, N54A, N55T, N59Q

IC50, TF-1 cell proliferation assay [1]: 0.2 nM
B8: BAK1185F8 scFv (scFv, V domains shown, part only)
VH: B5 VH with N31D, S52R, G53N, L54I, N55D, E57Y, L59I
VL: B5 VL
modifications: scFv linker not given

IC50, TF-1 cell proliferation assay [1]: 0.2 nM
B10: BAK1184C8 scFv (scFv, V domains shown, part only)
VH: B5 VH with L54S, E57Y, L59S
VL: B5 VL
modifications: scFv linker not given
